1 substance from patent US20250320286A1 can be followed below.

The experiment concerns the target 4U-3pE-beta-Amyloid. The experiment in a line: SPR; 4U-3pE-beta-Amyloid 0.6 to 4.5 nM. For orientation: Surface plasmon resonance follows binding to a sensor surface in real time, without labels.

For the substance Control mAb (antibody), the Kd amounted to 0.0379 nM, the koff came to 0.000156 s⁻¹ and the kon was found to be 4.11e+06 M⁻¹ s⁻¹.

For orientation: Kd means the concentration at which binding is half-saturated. The low end stands for tighter binding, the high end for weaker binding. The term koff denotes a measure of how fast the partners let go of each other. The kon is the second-order rate constant of association. A lower kon goes with slow association.
